Patent US20030191058A1 (WALTER AND ELIZA INSTITUTE OF MEDICAL RESEARCH, published 2003)
Square brackets hold non-standard residues; d marks the D form. * marks the point of attachment. Biotin = O=C1N[C@H]2[C@H](CS[C@H]2CCCCC(=O)*)N1; pY = N[C@@H](Cc1ccc(OP(=O)(O)O)cc1)C(=O)O

T1: recombinant murine SOCS-3, hexahistidine tagged (expressed from pET15b in E. coli, refolded) (murine, UniProt O35718 1-225)
T1 construct: also called recombinant SOCS-3; suppressor of cytokine signalling 3; not shown: hexahistidine tag from vector pET15b (NdeI/BamHI cloning)
T1 sequence (looked up): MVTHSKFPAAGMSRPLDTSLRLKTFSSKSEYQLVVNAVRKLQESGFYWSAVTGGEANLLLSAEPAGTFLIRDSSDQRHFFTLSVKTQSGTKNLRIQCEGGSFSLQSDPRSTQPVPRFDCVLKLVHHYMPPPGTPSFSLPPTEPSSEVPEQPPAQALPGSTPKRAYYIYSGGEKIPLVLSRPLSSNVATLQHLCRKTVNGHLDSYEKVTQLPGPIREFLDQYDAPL

B1: pY914 QTVRQGG(pY)MPQ gp130 (907-917) (peptide)
peptide: Biotin-QTVRQGG[pY]MPQ-NH2
SMILES: CSCC[C@H](NC(=O)[C@H](Cc1ccc(OP(=O)(O)O)cc1)NC(=O)CNC(=O)CNC(=O)[C@H](CCC(N)=O)NC(=O)[C@H](CCCNC(=N)N)NC(=O)[C@@H](NC(=O)[C@@H](NC(=O)[C@H](CCC(N)=O)NC(=O)CCCC[C@@H]1SC[C@@H]2NC(=O)N[C@@H]21)[C@@H](C)O)C(C)C)C(=O)N1CCC[C@H]1C(=O)N[C@@H](CCC(N)=O)C(N)=O
notes: also called biotinylated gp130(907-917) phosphopeptide; member of the group m25
B2: biotinylated gp130(674-688) phosphopeptide (peptide)
peptide: Biotin-FNSKDQM[pY]SDGNFTD-NH2
SMILES: CSCC[C@H](NC(=O)[C@H](CCC(N)=O)NC(=O)[C@H](CC(=O)O)NC(=O)[C@H](CCCCN)NC(=O)[C@H](CO)NC(=O)[C@H](CC(N)=O)NC(=O)[C@H](Cc1ccccc1)NC(=O)CCCC[C@@H]1SC[C@@H]2NC(=O)N[C@@H]21)C(=O)N[C@@H](Cc1ccc(OP(=O)(O)O)cc1)C(=O)N[C@@H](CO)C(=O)N[C@@H](CC(=O)O)C(=O)NCC(=O)N[C@@H](CC(N)=O)C(=O)N[C@@H](Cc1ccccc1)C(=O)N[C@H](C(=O)N[C@@H](CC(=O)O)C(N)=O)[C@@H](C)O
B3: pY765 STVVHSG(pY)RHQVPSV gp130 (758-772) (peptide)
peptide: Biotin-STVVHSG[pY]RHQVPSV-NH2
SMILES: CC(C)[C@H](NC(=O)[C@H](CO)NC(=O)[C@@H]1CCCN1C(=O)[C@@H](NC(=O)[C@H](CCC(N)=O)NC(=O)[C@H](Cc1c[nH]cn1)NC(=O)[C@H](CCCNC(=N)N)NC(=O)[C@H](Cc1ccc(OP(=O)(O)O)cc1)NC(=O)CNC(=O)[C@H](CO)NC(=O)[C@H](Cc1c[nH]cn1)NC(=O)[C@@H](NC(=O)[C@@H](NC(=O)[C@@H](NC(=O)[C@H](CO)NC(=O)CCCC[C@@H]1SC[C@@H]2NC(=O)N[C@@H]21)[C@@H](C)O)C(C)C)C(C)C)C(C)C)C(N)=O
notes: also called biotinylated gp130(758-772) phosphopeptide; member of the group m25

Assays:
[1] = target: recombinant murine SOCS-3, hexahistidine tagged (expressed from pET15b in E. coli, refolded) (murine) (UniProt O35718); experiment: SPR competition assay, reference gp130(750-764) phosphopeptide
[2] = target: recombinant murine SOCS-3, hexahistidine tagged (expressed from pET15b in E. coli, refolded) (murine) (UniProt O35718); experiment: SPR competition assay, soluble peptide against immobilised biotin-gp130(750-764) phosphopeptide, ~100 nM SOCS-3
[3] = target: recombinant murine SOCS-3, hexahistidine tagged (expressed from pET15b in E. coli, refolded) (murine) (UniProt O35718); experiment: SPR competition assay, soluble peptide against immobilised biotin-gp130(750-764) phosphopeptide
[4] = target: EPOR/gp130Y757F chimeric receptor (EPO receptor extracellular domain and gp130 cytoplasmic domain with tyrosine 757 mutated to phenylalanine); experiment: cell-based or functional assay
[5] = target: EPOR/gp130 chimeric receptor (erythropoietin receptor extracellular domain and gp130 cytoplasmic domain); experiment: cell-based or functional assay
[6] = target: recombinant murine SOCS-3, hexahistidine tagged (expressed from pET15b in E. coli, refolded) (murine) (UniProt O35718); experiment: SPR competition assay, soluble peptide against immobilised biotin-gp130(750-764) phosphopeptide; remark: listed apart in the source
[7] = target: T1, recombinant murine SOCS-3, …; experiment: pull-down: biotinylated phosphopeptide on streptavidin-agarose, eluate on SDS-PAGE
Protocol: After washing and elution of bound protein, samples were analyzed by SDS-PAGE.
Biotinylated phosphopeptides were also prepared corresponding to the known tyrosine phosphorylation sites in murine STAT-1 (Y701) and STAT-3 (Y705). […] Following removal of the protein solution, resin was washed twice with 1 mL PBS/0.1% v/v Tween-20, and bound protein eluted with 25 μL of SDS sample buffer containing 10 mM DTT, Samples were analyzed by SDS-PAGE on 12% w/v polyacrylamide gels.

Molecule | IC50 analogue/IC50 wild-type [1] | IC50 [2] [nM] | other results
truncated gp130 phosphopeptide STASTVE(pY)STVVH | 0.7 | 77 | 
truncated gp130 phosphopeptide analogue AcVA(pY)STVVHSG | 5 | 550 | 
truncated gp130 phosphopeptide AcE(pY)STVVHSG | 8.8 | 970 | 
JAK2 activation loop phosphopeptide LPQDKE(pY)YKVKEPGE |  |  | fold weaker affinity than gp130(750-764) [1]: 10000 fold
JAK1 activation loop phosphopeptide IETDKE(pY)YTVKDDRD |  |  | IC50 [3]: 230000 nM
gp130(750-764) phosphopeptide analogue STASTVE(pY)ATVVHSG | 0.65 | 72 | 
gp130(750-764) phosphopeptide analogue STASTVE(pY)STVVASG | 7 | 770 | 
truncated gp130 phosphopeptide STASTVE(pY)STVVHS | 0.55 | 61 | 
truncated gp130 phosphopeptide STASTVE(pY)STVV | 10 | 1100 | 
SOCS-3 expressed in transiently transfected 293T cells (Flag-tagged, detected with anti-Flag antibody) |  |  | 50% inhibition of EPO-induced APRE-luc luciferase activity in 293T cells (amount of SOCS-3 DNA transfected) [4]: 54 ng; 50% inhibition of EPO-induced APRE-luc luciferase activity in 293T cells (amount of SOCS-3 DNA transfected) [5]: 4 ng
truncated gp130 phosphopeptide AcTVE(pY)STVVHSG | 1.1 | 120 | 
truncated gp130 phosphopeptide analogue AcAE(pY)STVVHSG | 5.3 | 580 | 
JAK3 activation loop phosphopeptide LPLGKD(PY)YVVREPGQ |  |  | fold weaker affinity than gp130(750-764) [1]: 1000 fold; IC50 [6]: 110000 nM; IC50 [3]: 140000 nM
gp130(750-764) phosphopeptide analogue STASTVE(pY)STVAHSG | 10 | 1100 | 
truncated gp130 phosphopeptide Ac(pY)STVVHSG | 87 | 9600 | 
gp130(750-764) phosphopeptide analogue STASTVE(pY)STAVHSG | 31 | 3400 | 
B1 |  |  | binding result [7]: no binding (tested: 50 µg/mL)
B2 |  |  | binding result [7]: no binding (tested: 50 µg/mL)
B3 |  |  | binding result [7]: no binding (tested: 50 µg/mL)
